According to patent publication US20110311601A1, “ANTIMICROBIAL MEDICAL DEVICES” (priority 2010, published 2011):
Residue numbers refer to the chain shown, from its start. Where no end group is shown, it is not given here.

Columns and labels:
gram-positive bacteria = conditions: covalently attached onto titanium surfaces, in vitro; cited from earlier work
[1] = test system: Escherichia coli strain DB3.1; assay: microdilution assay of hβD2 coated biopolymers (percentage killing); assay type: cell-based; conditions: blocking substance alone, without hβD2
Description: Microdilution assay. In the microdilution assay the microorganisms were exposed to a potential bio-active substance in liquid surrounding, thus free to move. This potential bio-active substance was either homogenously dispersed in the liquid surrounding by active mixing at the beginning of the tests or could spread out of the sample during incubation time. The bioactivity was measured in percentage killing, wherein the number of colony forming units (CFU) in a control without test substance was set to 0% killing and a reduction in the cell number to zero was set to 100% killing.
Fresh cells were harvested by centrifugation at 1600 rpm for 10 min, the supernatant was removed and the cell pellet was resuspended in 5 ml 10 mM sodium phosphate buffer. This procedure was repeated twice. The optical density was adjusted to OD600 of 0.500 with 10 mM sodium phosphate buffer. 100 μl of the bacterial suspension was pipetted in one well of a microtiter plate without optimized surface. 10 μl test substance or test sample was added. In case of a test substance, the mixture was homogenized by absorbing the mixture several times with a pipette. The microtiter plate is then closed with parafilm and incubated at 37° C. for 2 h. After incubation the substances in the wells were mixed by a pipette. […] For evaluation, the grown colonies were counted.
The microdilution assay facilitates the examination of the hβD2 release kinetics of the biopolymers and thus allowed conclusions on what amounts of hβD2 in which time could be released. For comparing on evaluation of the assay the effect of directly applied hβD2 amounts with the effect of hβD2 amounts applied on biopolymers, the achieved percentage killing of bacteria was compared to the killing rate of the hβD2 standard series in the microdilution assays.
The collagen scaffolds and polylactide matrices were examined in the microdilution assay regarding their hβD2 release kinetics. Since the incubation time of the samples in the bacterial suspension is limited, the samples were stored at −25° C. after the test and until completion of a further assay. The thawed samples were then used in a new assay and were incubated again.

[2] = test system: Escherichia coli strain DB3.1; assay: micro-dilution assay of coated titanium pins and peptide controls (bacterial killing, CFU); assay type: cell-based; conditions: for antibacterial activity, killing: 10 μg coated on SAM 1, SAM 2, SAM 3 titanium pins, 2 h
Description: In a first experiment 10 μg of hβD2 was coated to three different SAM Hexadecyltrimethoxysilane (SAM 1), Dimethoxymethyloctylsilane (SAM 2), and oxidized Allyltrimethoxysilane (SAM 3) of the modified titanium pins. The anti-bacterial activity of the hβD2-coated pins was tested by a micro-dilution assay. Therefore, Escherichia coli strain DB3.1 (Invitrogen, Cat. No. 11782-018) was used. E. coli was streaked from a glycerol stock onto a Brain Heart Infusion (BHI) agar plate (3.7% (w/v) BHI Bouillon, 1.5% (w/v) Agar), grown overnight at 37° C. and subsequently used to inoculate 40 ml of 3.7% (w/v) BHI Bouillon without any antibiotics in 100 ml flasks. Fresh cells were harvested by centrifugation at 16000 rpm for 10 min and washed twice with 10 mM sodium phosphate buffer, pH 7.2. The optical density was adjusted to 10^4 cells/ml. For anti-bacterial testing, a single pin coated with hβD2 was incubated in one well of a microtiter plate containing 100 μl of the bacterial suspension.
Functionalized titanium pins without hβD2 served as negative controls (SAM1-n, SAM2-n, SAM3-n, SAM4::Col-NHS-n, SAM4::Col-Glu-n). In addition, 5 independent control reactions consisting of hβD2 in a final amount of 0 (NC), 0.02 (PC1), 0.2 (PC2), 2 (PC3) and 10 (PC4) μg were examined in parallel. To determine the specificity of the anti-bacterial activity of hβD2, 10 μl (10 μg/ml in PBS) of polyclonal monospecific anti-hβD2 antibodies were co-incubated with 10 μg of hβD2 and bacterial cells (Table I, PC4/ab).
The microtiter plates were incubated for 2 h at 37° C. The kinetic studies were performed by replacing the bacterial suspension, after 2 h of cultivation with a freshly pre-cultured E. coli solution, which contained the same bacterial concentration, and cultivating for another 2 h and so on. Colony forming units (CFU) were determined after plating 100 μl of a 1:100 dilution of the bacterial suspension on petri dishes with BHI medium and incubating them overnight at 37° C. For every group of the functionalized titanium pins and the controls, 5 independent anti-bacterial assays were performed. A control (NC) of bacterial growth was examined for every independent assay. The number of CFU on the control (consisting of a single petri dish) was set to 0% bactericidal activity. The reduction in the CFU resulting from the anti-bacterial activity of hβD2 was related to the absolute CFU of the control within every independent assay. This value, given as a percentage of the bacterial “killing” activity, was used to describe the antibacterial activity. This kind of normalisation of the antibacterial data was performed for every experimental group.
To examine the release behavior of hβD2 that is adsorbed by different SAM modified titanium pins a time kinetic experiment was performed. The experiment was performed analogous to Example 2. For this experiment 80 μg of hβD2 was adsorbed to three different SAMs Hexadecyltrimethoxysilane (SAM1), Dimethoxymethyloctylsilane (SAM2), and oxidized Allyltrimethoxysilane (SAM3) of the modified titanium pins.
Since it is known that collagen has a positive impact on wound healing, functionalised titanium pins with collagen were investigated. Two different cross-linking strategies for collagen on SAM3 and SAM4 were applied as described in Example 1: (i) a covalently binding strategy with the NHS/EDC cross-linking system, and (ii) the use of glutaraldehyde. Successful binding of collagen was monitored by collagen-specific DirectRed staining (as described in Example 1). […] Additionally 80 μg hβD2 was adsorbed to collagen functionalized SAM3 and SAM4 modified titanium pins, respectively. For monitoring the antibacterial activity of the bio-coated pins the experiment was performed analogous to Example 3. […]

[3] = molecular target: collagen scaffold (bovine collagen type I) (bovine, UniProt P02453 162-1217; P02465 80-1117, limits assumed); assay: cell-based or functional assay
Chain of collagen scaffold (bovine collagen type I) (P02453 162-1217 limits assumed, chain 1 of 2): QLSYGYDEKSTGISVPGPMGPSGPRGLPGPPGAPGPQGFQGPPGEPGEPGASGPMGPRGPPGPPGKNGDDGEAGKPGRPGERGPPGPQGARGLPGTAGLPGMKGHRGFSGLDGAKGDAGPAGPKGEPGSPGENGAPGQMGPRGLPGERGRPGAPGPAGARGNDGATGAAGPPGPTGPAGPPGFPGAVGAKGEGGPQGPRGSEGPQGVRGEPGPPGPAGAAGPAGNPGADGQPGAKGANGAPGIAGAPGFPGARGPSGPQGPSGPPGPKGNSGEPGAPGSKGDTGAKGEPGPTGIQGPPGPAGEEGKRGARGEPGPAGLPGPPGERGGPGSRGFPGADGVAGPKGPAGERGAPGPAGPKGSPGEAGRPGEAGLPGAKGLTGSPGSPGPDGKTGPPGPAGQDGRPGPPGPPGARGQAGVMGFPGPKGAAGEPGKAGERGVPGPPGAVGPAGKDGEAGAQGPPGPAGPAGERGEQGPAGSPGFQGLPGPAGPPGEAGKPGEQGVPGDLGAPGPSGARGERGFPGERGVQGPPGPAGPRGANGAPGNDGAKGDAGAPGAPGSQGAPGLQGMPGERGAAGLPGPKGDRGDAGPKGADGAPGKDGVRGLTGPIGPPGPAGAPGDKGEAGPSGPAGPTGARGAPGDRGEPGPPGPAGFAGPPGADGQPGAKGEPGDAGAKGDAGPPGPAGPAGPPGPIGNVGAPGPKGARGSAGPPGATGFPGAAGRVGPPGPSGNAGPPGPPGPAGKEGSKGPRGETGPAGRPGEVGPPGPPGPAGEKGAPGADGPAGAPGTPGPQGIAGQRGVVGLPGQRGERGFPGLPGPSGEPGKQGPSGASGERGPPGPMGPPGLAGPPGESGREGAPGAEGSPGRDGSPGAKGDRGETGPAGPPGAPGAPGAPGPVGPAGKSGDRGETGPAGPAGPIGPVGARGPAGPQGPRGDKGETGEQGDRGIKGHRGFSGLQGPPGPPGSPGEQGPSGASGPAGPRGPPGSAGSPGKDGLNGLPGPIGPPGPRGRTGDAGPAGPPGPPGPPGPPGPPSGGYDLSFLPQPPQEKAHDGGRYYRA
Chain of collagen scaffold (bovine collagen type I) (P02465 80-1117 limits assumed, chain 2 of 2): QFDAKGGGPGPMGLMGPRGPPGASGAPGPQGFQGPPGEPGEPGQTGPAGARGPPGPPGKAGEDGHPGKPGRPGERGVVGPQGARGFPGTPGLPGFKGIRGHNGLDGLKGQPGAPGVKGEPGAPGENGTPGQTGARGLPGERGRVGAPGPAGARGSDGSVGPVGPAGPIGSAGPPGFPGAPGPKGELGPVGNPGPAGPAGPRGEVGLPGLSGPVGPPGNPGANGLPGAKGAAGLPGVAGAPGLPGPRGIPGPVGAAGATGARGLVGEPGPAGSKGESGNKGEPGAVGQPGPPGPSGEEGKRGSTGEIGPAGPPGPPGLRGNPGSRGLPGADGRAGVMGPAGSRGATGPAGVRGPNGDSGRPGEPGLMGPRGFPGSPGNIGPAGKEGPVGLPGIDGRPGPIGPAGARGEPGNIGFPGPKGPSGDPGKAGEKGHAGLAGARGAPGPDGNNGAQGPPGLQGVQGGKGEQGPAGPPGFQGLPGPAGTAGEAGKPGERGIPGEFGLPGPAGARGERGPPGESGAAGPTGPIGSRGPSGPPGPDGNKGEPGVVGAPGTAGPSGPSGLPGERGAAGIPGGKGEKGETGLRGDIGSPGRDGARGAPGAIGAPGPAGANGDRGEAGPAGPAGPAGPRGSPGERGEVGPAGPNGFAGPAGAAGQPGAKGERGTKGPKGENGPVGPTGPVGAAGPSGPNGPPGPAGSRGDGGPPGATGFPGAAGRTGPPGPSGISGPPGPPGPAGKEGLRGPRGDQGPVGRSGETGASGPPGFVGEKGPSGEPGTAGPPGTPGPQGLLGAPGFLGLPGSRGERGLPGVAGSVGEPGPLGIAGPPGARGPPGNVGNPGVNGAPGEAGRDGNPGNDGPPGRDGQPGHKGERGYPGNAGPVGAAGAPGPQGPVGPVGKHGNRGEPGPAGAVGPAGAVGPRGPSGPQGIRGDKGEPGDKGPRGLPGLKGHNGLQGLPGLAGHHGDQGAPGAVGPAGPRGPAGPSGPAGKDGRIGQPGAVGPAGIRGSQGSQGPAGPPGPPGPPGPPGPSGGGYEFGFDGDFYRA

[4] = 80 μg adsorbed on SAM3 titanium pins, 6 h
[5] = 80 μg on collagen SAM4 pins, NHS/EDC-system, 4 h
[6] = 80 μg on collagen SAM4 pins, NHS/EDC-system, 6 h
[7] = 80 μg on collagen SAM4 pins, glutaraldehyde, 4 h
[8] = 80 μg on collagen SAM4 pins, glutaraldehyde, 6 h

## CN[C@H](CC(C)C)C(=O)N[C@H]1C(=O)N[C@@H](CC(N)=O)C(=O)N[C@H]2C(=O)N[C@H]3C(=O)N[C@H](C(=O)N[C@H](C(=O)O)c4cc(O)cc(O)c4-c4cc3ccc4O)[C@H](O)c3ccc(c(Cl)c3)Oc3cc2cc(c3O[C@@H]2O[C@H](CO)[C@@H](O)[C@H](O)[C@H]2O[C@H]2C[C@](C)(N)[C@H](O)[C@H](C)O2)Oc2ccc(cc2Cl)[C@H]1O [vancomycine]
gram-positive bacteria
  reduced colony-forming of gram-positive bacteria: up to 88%

## O=C([O-])CC(O)(CC(=O)[O-])C(=O)[O-].[Na+].[Na+].[Na+] [Sodium citrate, sodium citrate, reference compound]
[1]
  self-activity (killing / reduction of the number of bacteria): 100%

## NCCCCNCCCN [spermidine, reference compound]
[1]
  self-activity (killing / reduction of the number of bacteria): 35%

## N[C@@H](CCC(=O)O)C(=O)O [L-glutamic acid, reference compound]
[1]
  self-activity (killing / reduction of the number of bacteria): 4%

## NCCCC[C@H](N)C(=O)O [L-lysine, reference compound]
[1]
  self-activity (killing / reduction of the number of bacteria): 4%

## chondroitin sulphate [reference compound]
[1]
  self-activity (killing / reduction of the number of bacteria): 23%

## poly-L-lysine [reference compound]
[1]
  self-activity (killing / reduction of the number of bacteria): 100%

## poly-L-glutamic acid [reference compound]
[1]
  self-activity (killing / reduction of the number of bacteria): no self-activity

B1: Ribonuclease 7 (protein)
chain: KPKGMTSSQWFKIQHMQPSPQACNSAMKNINKHTKRCKDLNTFLHEPFSSVAATCQTPKIACKNGDKNCHQSHGPVSLTMCKLTSGKYPNCRYKEKRQNKSYVVACKPPQKKDSQQFHLVPVHLDRVL
modifications: Homo sapien
[2]
  antibacterial activity, killing: about 90%
[2]; [4]
  killing rate: 21%
[2]; [5]
  killing rate: 49%
[2]; [6]
  killing rate: about 22%
[2]; [7]
  killing rate: 77%
[2]; [8]
  killing rate: about 8%

B2: mutRNAse7: Ribonuclease 7 derivative, SEQ ID NO: 10 (protein)
chain: B1 chain with K38R, H123D
modifications: Synthetic primer
[2]
  antibacterial activity, killing: about 90%
[2]; 80 μg adsorbed on SAM1 titanium pins, 6 h
  killing rate: ~41%
[2]; [4]
  killing rate: 17%
[2]; [5]
  killing rate: 53%
[2]; [6]
  killing rate: ~17%
[2]; [7]
  killing rate: 75%
[2]; [8]
  killing rate: ~15%

B3: human β-defensin-2 (peptide)
peptide: GIGDPVTCLKSGAICHPVFCPRRYKQIGTCGLPGTKCCKKP
modifications: ends and bridges not checked; cysteine pairing not given here
[3]
  hβD2 released by the scaffold (agar diffusion assay, zone of inhibition against E. coli, 10 µg hβD2 applied): 40%
  hβD2 retarded by the scaffold (agar diffusion assay, zone of inhibition against E. coli, 10 µg hβD2 applied): 60%
